Biological target: F-actin (skeletal muscle) (Oryctolagus cuniculus, UniProt P68135)
Experiment: co-sedimentation assay

- Kd: ~45 µM
B1: dystrophin N-ABD K18N 1-246 (protein)
chain: MLWWEEVEDCYEREDVQNKTFTKWVNAQFSKFGKQHIENLFSDLQDGRRLLDLLEGLTGQKLPKEKGSTRVHALNNVNKALRVLQNNNVDLVNIGSTDIVDGNHKLTLGLIWNIILHWQVKNVMKNIMAGLQQTNSEKILLSWVRQSTRNYPQVNVINFTTSWSDGLALNALIHSHRPDLFDWNSVVCQQSATQRLEHAFNIARYQLGIEKLLDPEDVDTTYPDKKSILMYITSLFQVLPQQVSIE
